# Patent US20100234283A1
# B1: VEGF-P3(CYC) (peptide)
# peptide: ITMQCGIHQGQHPKIMICEMSF
# modifications: not checked
# B2: VEGF-P3(NC) (peptide)
# peptide: ITMQCGIHQGQHPKIMICEMSF
# modifications: not checked
# B3: VEGF 102-122 (peptide)
# peptide: ITMQIMRIKPHQGQHIGEMSF
# modifications: not checked
# Target: VEGFR-2 on HUVEC and 293/KDR cells (human), P35968
# Assay: cell-based or functional assay
row,Binder,"inhibition of HUVEC migration (scratch wound assay, 50 ng/ml rhVEGF) [%]"
1,B1,50
2,B2,50
3,B3,50

# Target: T1, KDR-Fc (R&D System), P35968
# T1 chain: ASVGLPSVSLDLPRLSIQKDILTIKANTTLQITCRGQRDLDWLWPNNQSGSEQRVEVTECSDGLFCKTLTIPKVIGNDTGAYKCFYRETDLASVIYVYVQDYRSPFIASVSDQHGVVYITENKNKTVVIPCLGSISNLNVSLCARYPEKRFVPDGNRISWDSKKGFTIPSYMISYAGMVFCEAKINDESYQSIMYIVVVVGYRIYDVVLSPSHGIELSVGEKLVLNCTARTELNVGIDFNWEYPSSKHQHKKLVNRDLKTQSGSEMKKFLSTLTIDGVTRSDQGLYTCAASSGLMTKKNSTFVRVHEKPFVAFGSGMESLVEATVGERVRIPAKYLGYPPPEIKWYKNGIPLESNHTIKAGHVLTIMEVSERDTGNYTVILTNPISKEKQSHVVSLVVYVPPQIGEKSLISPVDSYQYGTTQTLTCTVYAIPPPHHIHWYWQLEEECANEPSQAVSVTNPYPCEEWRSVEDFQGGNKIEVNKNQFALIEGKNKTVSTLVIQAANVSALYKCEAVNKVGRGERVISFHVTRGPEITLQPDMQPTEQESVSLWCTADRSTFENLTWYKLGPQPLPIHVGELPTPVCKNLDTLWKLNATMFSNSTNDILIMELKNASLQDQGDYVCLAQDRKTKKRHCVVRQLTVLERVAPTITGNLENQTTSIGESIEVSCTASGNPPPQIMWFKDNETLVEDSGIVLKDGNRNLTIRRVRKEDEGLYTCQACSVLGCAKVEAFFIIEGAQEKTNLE
# Assay: SPR (BIAcore 3000), peptide on CM5 chip, KDR-Fc injected, 1:1 Langmuir fit
row,Binder,Kd [nM]
1,B1,11
2,B2,49
3,B3,45
